From the supplement of paper PMC11246515
± gives the standard deviation of the averaged measurements.

Assay: total protein half-life in vivo (active degradation + dilution); higher = more stable protein
[1] = E. coli NCM3722 delta-clpP delta-lon delta-hslV, growth: N-lim chemostat, doubling time 6 h
[2] = E. coli NCM3722 delta-hslV, growth: N-lim chemostat, doubling time 6 h
[3] = E. coli NCM3722 delta-lon, growth: N-lim chemostat, doubling time 6 h
[4] = E. coli NCM3722 delta-smpB, growth: N-lim chemostat, doubling time 6 h
[5] = wild type E. coli NCM3722, growth: C-lim chemostat, doubling time 3 h
[6] = wild type E. coli NCM3722, growth: C-lim chemostat, doubling time 6 h
[7] = wild type E. coli NCM3722, growth: C-lim chemostat, doubling time 12 h
[8] = wild type E. coli NCM3722, growth: N-lim chemostat, doubling time 6 h
[9] = wild type E. coli NCM3722, growth: N-lim chemostat, doubling time 12 h
[10] = wild type E. coli NCM3722, growth: P-lim chemostat, doubling time 6 h
[11] = wild type E. coli NCM3722, growth: P-lim chemostat, doubling time 12 h
[12] = E. coli NCM3722 delta-clpP, growth: N-lim chemostat, doubling time 6 h

With “MKSLQALFGGTFDPVHYGHLKPVETLANLIGLTRVTIIPNNVPPHRPQPEANSVQRKHMLELAIADKPLFTLDERELKRNAPSYTAQTLKEWRQEQGPDVPLAFIIGQDSLLTFPTWYEYETILDNAHLIVCRRPGYPLEMAQPQYQQWLEDHLTHNPEDLHLQPAGKIYLAETPWFNISATIIRERLQNGESCEDLLPEPVLTYINQQGLYR [P0A752]” the “total protein half-life in vivo” value [1] was 4.39 ± 0.63 h, the “total protein half-life in vivo” value [2] was 5 ± 0.32 h and the “total protein half-life in vivo” value [3] was 5.03 ± 0.38 h. The “total protein half-life in vivo” value [4] was 4.2 ± 0.31 h, the “total protein half-life in vivo” value [5] was 3.34 ± 0.12 h and the “total protein half-life in vivo” value [6] was 4.95 ± 0.23 h. For the same sequence, the “total protein half-life in vivo” value [7] was 11.3 ± 2.1 h, the “total protein half-life in vivo” value [8] was 4.49 h and the “total protein half-life in vivo” value [9] was 7.22 ± 0.54 h. For the same sequence, the “total protein half-life in vivo” value [10] was 5.47 h and the “total protein half-life in vivo” value [11] was 8.78 ± 2.9 h.
With “MKLIRGIHNLSQAPQEGCVLTIGNFDGVHRGHRALLQGLQEEGRKRNLPVMVMLFEPQPLELFATDKAPARLTRLREKLRYLAECGVDYVLCVRFDRRFAALTAQNFISDLLVKHLRVKFLAVGDDFRFGAGREGDFLLLQKAGMEYGFDITSTQTFCEGGVRISSTAVRQALADDNLALAESLLGHPFAISGRVVHGDELGRTIGFPTANVPLRRQVSPVKGVYAVEVLGLGEKPLPGVANIGTRPTVAGIRQQLEVHLLDVAMDLYGRHIQVVLRKKIRNEQRFASLDELKAQIARDELTAREFFGLTKPA [P0AG40]” the “total protein half-life in vivo” value [1] was 4.18 ± 0.72 h, the “total protein half-life in vivo” value [12] was 5.21 ± 0.77 h and the “total protein half-life in vivo” value [2] was 4.54 ± 0.2 h. For the same sequence, the “total protein half-life in vivo” value [3] was 5.2 ± 0.77 h, the “total protein half-life in vivo” value [4] was 4.43 ± 0.14 h and the “total protein half-life in vivo” value [5] was 3.15 ± 0.15 h. The “total protein half-life in vivo” value [6] was 5.64 ± 0.3 h, the “total protein half-life in vivo” value [7] was 10.5 ± 0.48 h and the “total protein half-life in vivo” value [8] was 4.62 ± 0.35 h. The “total protein half-life in vivo” value [9] was 7.426 ± 0.064 h, the “total protein half-life in vivo” value [10] was 5.441 ± 0.05 h and the “total protein half-life in vivo” value [11] was 11.83 ± 0.032 h.
In the case of “MNNIQLAHGSGGQAMQQLINSLFMEAFANPWLAEQEDQARLDLAQLVAEGDRLAFSTDSYVIDPLFFPGGNIGKLAICGTANDVAVSGAIPRYLSCGFILEEGLPMETLKAVVTSMAETARAAGIAIVTGDTKVVQRGAVDKLFINTAGMGAIPANIHWGAQTLTAGDVLLVSGTLGDHGATILNLREQLGLDGELVSDCAVLTPLIQTLRDIPGVKALRDATRGGVNAVVHEFAAACGCGIELSEAALPVKPAVRGVCELLGLDALNFANEGKLVIAVERNAAEQVLAALHSHPLGKDAALIGEVVERKGVRLAGLYGVKRTLDLPHAEPLPRIC”, the “total protein half-life in vivo” value [1] is reported as 3.91 ± 0.43 h, the “total protein half-life in vivo” value [12] is reported as 3.16 ± 0.4 h and the “total protein half-life in vivo” value [2] is reported as 3.27 ± 0.042 h. For the same sequence, the “total protein half-life in vivo” value [3] was 3.76 ± 0.14 h, the “total protein half-life in vivo” value [4] was 3.59 ± 0.38 h and the “total protein half-life in vivo” value [5] was 2.96 ± 0.3 h. For the same sequence, the “total protein half-life in vivo” value [7] was 9.14 ± 0.81 h, the “total protein half-life in vivo” value [8] was 3.28 ± 0.28 h and the “total protein half-life in vivo” value [9] was 4.8 ± 0.18 h. The “total protein half-life in vivo” value [10] was 4.98 ± 0.13 h and the “total protein half-life in vivo” value [11] was 9.482 ± 0.012 h.
For “MAGLKLQAVTKSWDGKTQVIKPLTLDVADGEFIVMVGPSGCGKSTLLRMVAGLERVTEGDIWINDQRVTEMEPKDRGIAMVFQNYALYPHMSVEENMAWGLKIRGMGKQQIAERVKEAARILELDGLLKRRPRELSGGQRQRVAMGRAIVRDPAVFLFDEPLSNLDAKLRVQMRLELQQLHRRLKTTSLYVTHDQVEAMTLAQRVMVMNGGVAEQIGTPVEVYEKPASLFVASFIGSPAMNLLTGRVNNEGTHFELDGGIELPLNGGYRQYAGRKMTLGIRPEHIALSSQAEGGVPMVMDTLEILGADNLAHGRWGEQKLVVRLAHQERPTAGSTLWLHLAENQLHLFDGETGQRV”, the “total protein half-life in vivo” value [1] was 6.33 ± 0.31 h, the “total protein half-life in vivo” value [12] was 6 ± 0.91 h and the “total protein half-life in vivo” value [2] was 5.83 ± 0.11 h. For the same sequence, the “total protein half-life in vivo” value [3] was 4.99 ± 0.61 h, the “total protein half-life in vivo” value [4] was 5.45 ± 0.75 h and the “total protein half-life in vivo” value [5] was 3.13 ± 0.15 h. The “total protein half-life in vivo” value [6] was 5.54 ± 0.4 h, the “total protein half-life in vivo” value [7] was 12 ± 0.92 h and the “total protein half-life in vivo” value [8] was 5.14 ± 0.41 h. For the same sequence, the “total protein half-life in vivo” value [10] was 6.25 ± 0.35 h and the “total protein half-life in vivo” value [11] was 13.2 ± 0.23 h.
In the case of “MDIFISKKMRNFILLAQTNNIARAAEKIHMTASPFGKSIAALEEQIGYTLFTRKDNNISLNKAGQELYQKLFPVYQRLSAIDNEIHNSGRRSREIVIGIDNTYPTIIFDQLISLGDKYEGVTAQPVEFSENGVIDNLFDRQLDFIISPQHVSARVQELENLTISELPPLRLGFLVSRRYEERQEQELLQELPWLQMRFQNRANFEAMIDANMRPCGINPTIIYRPYSFMAKISAVERGHFLTVIPHFAWRLVNPATLKYFDAPHRPMYMQEYLYSIRNHRYTATMLQHIAEDRDGTSH”, the “total protein half-life in vivo” value [1] is reported as 5.12 h and the “total protein half-life in vivo” value [9] is reported as 9.66 h.
In the case of “MVLMIVSGRSGSGKSVALRALEDMGFYCVDNLPVVLLPDLARTLADREISAAVSIDVRNMPESPEIFEQAMSNLPDAFSPQLLFLDADRNTLIRRYSDTRRLHPLSSKNLSLESAIDKESDLLEPLRSRADLIVDTSEMSVHELAEMLRTRLLGKRERELTMVFESFGFKHGIPIDADYVFDVRFLPNPHWDPKLRPMTGLDKPVAAFLDRHTEVHNFIYQTRSYLELWLPMLETNNRSYLTVAIGCTGGKHRSVYIAEQLADYFRSRGKNVQSRHRTLEKRKP [P0A894]”, the “total protein half-life in vivo” value [1] is reported as 5.6 ± 1.1 h, the “total protein half-life in vivo” value [12] is reported as 4.58 ± 0.2 h and the “total protein half-life in vivo” value [2] is reported as 4.92 ± 0.47 h. For the same sequence, the “total protein half-life in vivo” value [3] was 5.04 ± 0.64 h, the “total protein half-life in vivo” value [4] was 4.453 ± 0.016 h and the “total protein half-life in vivo” value [5] was 3.02 ± 0.095 h. The “total protein half-life in vivo” value [6] was 6.62 ± 1.3 h, the “total protein half-life in vivo” value [7] was 11.5 ± 0.81 h and the “total protein half-life in vivo” value [8] was 4.48 ± 0.31 h. For the same sequence, the “total protein half-life in vivo” value [9] was 7.88 ± 1.8 h, the “total protein half-life in vivo” value [10] was 5.95 ± 0.11 h and the “total protein half-life in vivo” value [11] was 12.1 ± 0.55 h.
